Source: patent US4771127A (priority 1985, dated 1988)

Tests used:
[1] = tested on: specific IgG antibody; design: species or system rabbits; details: rabbit, in vivo
[2] = tested on: mice; details: mouse, in vivo, ip
[3] = rabbit, in vivo, iv

Tetanus Toxoid
Immunogenicity [1]: Immunogenic
Toxicity (class) [2]: Nontoxic (key: Nontoxic: a minimum of 50 ug of antigen administered intraperitoneally resulted in no mortality)
Pyrogenicity (highest dose with rise in body temperature ≤ +0.3° C.) [3]: 50 ug/ml/kg body weight
